This sample holds only a part of the variants without activity.
B1: TPR 5TU (parent)
chain: GGAUCUUCUCGAUCUAACAAAAAAGACAAAUCUGCCACAAAGCUUGAGAGCAUCUUCGGAUGCAGAGGCGGCAGCCUUCGGUGGCGCGAUAGCGCCAACGUUCUCAACUAUGACACGCAAAACGCGUGCUCCGUUGAAUGGAGUUUAUCAUG

Variants of: B1
Assay: polymerase ribozyme fitness, log enrichment relative to wild type (log ratio); higher = more active; in vitro selection for triplet polymerase activity
Procedure, shortened: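 Fitness is a logarithmic measure of how a genotype enriched relative to the wild type, with replicate averages weighted by inverse variance. The logarithm uses base 2, and enrichment came from Illumina sequencing of input and output libraries. Those libraries were PCR-built, transcribed mutants of each subunit of a heterodimeric triplet polymerase ribozyme, passed through one triplicate in vitro selection round that included frozen incubation at −7 °C, gel excision of extended constructs and streptavidin-bead capture. Genotypes were kept only if they had ≥10 input reads and ≥1 read per output.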

| Variant | polymerase ribozyme fitness (log ratio) |
| --- | --- |
| C51U G86U U145G | -2.27 |
| C51A C76G G88C C103A C125A G140A | ≤ -4.2 |
| C51U G59C | 0.723 |
| C51U C87A G141U | ≤ -4.2 |
| A49U U61C G70A G92U | ≤ -4.2 |
| G50U C57U | 1 |
| G50C G65C G68A G86U A147G | ≤ -4.2 |
| G50C A73C C95G C105G | ≤ -4.2 |
| G50C G65C C87U | -4.13 |
| A52G A60G U77G A91U G133U | ≤ -4.2 |
| G50C U56A C57G A66G C95A C99U A113G G140A | -4.04 |
| G50A C72U C85A | -2.69 |
| G50A A52U C76G A150G | ≤ -4.2 |
| A49G G50C C69G C103G G136U | ≤ -4.2 |
| G50U G83U G128C | -3.62 |
| G50A A73U C93G G100U A107G U109C A142C A150U | ≤ -4.2 |
| A52C A66C C69A C87G G133U | ≤ -4.2 |
| C51G U53C U77C C95A | ≤ -4.2 |
| G50A U56A G62C C63A C96G | ≤ -4.2 |
| A52C U145G | -1.17 |
| A49G C51G U53G C79U C118U | ≤ -4.2 |
| G50A G71C A91U A150U | ≤ -4.2 |
| C51A G59U A64G C85U C99G A113G A120G U127G G140U U148A | ≤ -4.2 |
| G50A C85U | -1.67 |

| Variant | polymerase ribozyme fitness (log ratio) |
| --- | --- |
| A52C C93U | -2.33 |
| A49U U56A C75U C108A U111G U146G | ≤ -4.2 |
| A49G C63U C85U | -0.955 |
| A52G C54U C93A | -1.98 |
| A49U A138U | ≤ -4.2 |
| C51U G67C U135C | ≤ -4.2 |
| A52C G70C C85U C125U | ≤ -4.2 |
| G50A C57A G58C U77C G88C U139A | ≤ -4.2 |
| G50A C118G | -2.21 |
| C51A U55G | -2.17 |
| C51A U55A G94A C125A | -3.04 |
| G50U A107U | -3.73 |
| A52C G94C | -2.26 |
| G50A A150G | -3.11 |
| G50A U55G G67C G80U C85G C105U A138U | ≤ -4.2 |
| A52C G92U C116G | -1.7 |
| A49U U55A | -1.02 |
| C51U G59A C95A C125G | -1.53 |
| C51A U101C C123A | -2.09 |
| C51U A52C | -1.33 |
| C51U A98U | -0.337 |
| G50A G83A C87A A91C G92A U146A | ≤ -4.2 |
| G50C A60C A98U | -3.01 |
| C51U C118U | -0.957 |

| Variant | polymerase ribozyme fitness (log ratio) |
| --- | --- |
| C51U U127A A142G | -4.07 |
| C51U U55C A106G U151G | ≤ -4.2 |
| G50A G71A C95U U139A | ≤ -4.2 |
| A52C A138G | -3.62 |
| A52C A66G G71U C125U | ≤ -4.2 |
| A52C U56A C75U A89U U90G C95G C123G C125A | ≤ -4.2 |
| C51G C72A C79A G94A | ≤ -4.2 |
| A49G C85U | -0.982 |
| A49G C85A | -2.52 |
| G50A G74A U78C A113G G124C | ≤ -4.2 |
| G50A U134C | -1.29 |
| A49U G59U | -0.317 |
| A49G G83C | -1.21 |
| A49U U61G C93A C108G C114A U134A C149G | ≤ -4.2 |
| G50A G88A | ≤ -4.2 |
| A52G A113U A150C | ≤ -4.2 |
| G50A G94U A121C | -2.21 |
| G50C A89G A107C C123G | ≤ -4.2 |
| G50A U53A | -1.59 |
| A49G A120U | -0.63 |
| C51U A60G C79G C85G C129A | ≤ -4.2 |
| C51U C85A G143C | -2.7 |
| C51A A60G G124U | -1.75 |
| A49U C51U C79A A120G C123A | ≤ -4.2 |

| Variant | polymerase ribozyme fitness (log ratio) |
| --- | --- |
| A49U U56G C57U C96U U102G A147G | -3.99 |
| G50A A122U A137G | -2.6 |
| G50C C75G | ≤ -4.2 |
| G50U G58A A66U C79U C87U G88C A121C | ≤ -4.2 |
| G50U G94U C103U | -2.08 |
| G50A U56A C95U | -1.99 |
| G50U U78C | -2.27 |
| G50A A142U | -2.45 |
| A52G A119G | -0.813 |
| C51A C54U C85U | -1.93 |
| C51A U82G A115U | -3.17 |
| G50C G83C G94A C132U U135C A142U | ≤ -4.2 |
| G50C A98U | -2.38 |
| A52C U61A G88U C96U G136U | ≤ -4.2 |
| A52G C54U | 0.381 |
| G50A G65C C76G G92C G100A C125G | ≤ -4.2 |
| C51A C57G | -2.19 |
| G50A C76A C87A A97G C118U G141C | ≤ -4.2 |
| G50A A106C | -2.72 |
| A49U C93A C103U A119U | ≤ -4.2 |
| G50C C116A U144A C149G | ≤ -4.2 |
| A52C G92U | -1.12 |
| G50A C87U C99U U146A | -3.96 |
| A49G C57U | -0.525 |

| Variant | polymerase ribozyme fitness (log ratio) |
| --- | --- |
| C51U U104G | -1.04 |
| A49G G50C G71A A91U U151A | ≤ -4.2 |
| G50A U145A | -0.516 |
| G50U G62U U101C | -1 |
| G50A A52G | -1.15 |
| G50U A52G C99G | -2.55 |
| A52C C103U | -0.611 |
| A52C C87A C93U A98U G128U U148G | ≤ -4.2 |
| C51A | -0.687 |
| C51U | -0.394 |
| C51G | -1.58 |
| C51G G81U C96U | -1.16 |
| A52C U56A G86A U90A A107C | ≤ -4.2 |
| G50A G58U C95U C118G | -1.92 |
| A49U A91G U130A A138U | ≤ -4.2 |
| G50A C93A | -3.33 |
| C51G G81C C85G C123U G143A | -3.82 |
| G50A C54A C87A G128A | ≤ -4.2 |
| A52C C75U G88C C96U C105G G136U | ≤ -4.2 |
| A52C C87U A91U C116U G128U | ≤ -4.2 |
| G50C G84U | -3.79 |
| G50U C87U A115U U144A | -3.8 |
| G50A C54U | -1.32 |
| A52C U148G | ≤ -4.2 |

| Variant | polymerase ribozyme fitness (log ratio) |
| --- | --- |
| A49G A119C | -0.604 |
| G50A G83C U144A | -2.07 |
| G50C C103A U139C | ≤ -4.2 |
| A49G G59C U77G U139A | ≤ -4.2 |
| A49U G74A C79A U90A G94A C123G G133U | ≤ -4.2 |
| G50C A52C C79A C116G C125G C132G | ≤ -4.2 |
| G50C A66C C79G C93U C95U U139C A147U | ≤ -4.2 |
| C51U A89U G92C C129U | -2.18 |
| A49U C85U U148A | ≤ -4.2 |
| A49G C93A G100A | ≤ -4.2 |
| G50C U56G A64G G83A C105G U109G | ≤ -4.2 |
| G50U C95U | -0.241 |
| G50A C103G U111G A122U U151A | ≤ -4.2 |
| G50U G136U C149G | -4.16 |
| A52C C57U G80C A98U | -2.02 |
| G50C A52C C118G | -3.55 |
| C51G A52U C63A A138U | ≤ -4.2 |
| G50U C76A G126U U148G | ≤ -4.2 |
| G50C A52C G128A | ≤ -4.2 |
| C51A U55A C95A A110U G128C | ≤ -4.2 |
| A49U G50U C125U | -1.77 |
| G50C G59C U102G | -2.34 |
| A49G U53A C54U | -2.09 |
| A49U G59C A73G A119C U134G G136A | -3.39 |

| Variant | polymerase ribozyme fitness (log ratio) |
| --- | --- |
| G50C C75G C85A C132U | ≤ -4.2 |
| A49U A52C G59A A73U C76G G84U | ≤ -4.2 |
| C51U C57A C63U G65C | ≤ -4.2 |
| A52C C76U U101G | -4.01 |
| G50C U53C G83A C95G | ≤ -4.2 |
| C51A C57A C95A G126A A147G | ≤ -4.2 |
| C51A U55G G88C C95A A119C | ≤ -4.2 |
| C51G A66U G67A C118U | ≤ -4.2 |
| C51U C93G | -3.69 |
| G50U G80A A91G C99G | ≤ -4.2 |
| C51A A91G C95U A97G A119U | ≤ -4.2 |
| G50A G58A U78A G94A G141U | ≤ -4.2 |
| C51U C57A G84A U109G C123A | -1.74 |
| G50A C95G A115U | ≤ -4.2 |
| C51G G94A | -1.79 |
| C51U G92U C93U C95U | -2.56 |
| C51U G67A U77G C116G G126A C129A | ≤ -4.2 |
| A49U U56G C57U C96U U102G | -1.32 |
| G50U A52C C57A G58U A107G | ≤ -4.2 |
| A52C G83A | -2.46 |
| C51U C75U C87U U104C A115G A121U A142C | -4.13 |
| A52C U102G A147U | -3.59 |
| G50A C99A U145A | -3.7 |

From the RNAGym collection of RNA variant scans (doi:10.1073/pnas.2313332121)
